Experiments:
[1] = system: RSV pre-F antibody (3C12); assay: Binding of epitope Φ of RSV F antigen mutants by flow cytometry; settings: for RSV pre-F antibody (3C12) Epitope Φ (%) binding rate: flow cytometry; for Φ/II (%): ratio of epitope Φ (3C12) to epitope II (11A9) binding rate
How it was run: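 293T cells were transfected with mRNA-LNP (300 ng mRNA) encoding the RSV F mutants and harvested after 16 h. Cells were stained with fluorescent 3C12 (pre-F-specific epitope Φ) or 11A9 (epitope II, pre-F and post-F) for 2 h at 4 °C in the dark, then washed and read by flow cytometry on 1×10^4 cells per measurement.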

[2] = system: RSV pre-F antibody (3C12); assay: ELISA binding of RSV F antigen mutants, epitope Φ; settings: for binding of epitope Φ, epitope Quaternary and epitope V to the corresponding antibodies (in words): ELISA, antibodies 3C12, 7H11, 7E11; for Binding amount to antibody/binding amount of PC-RSV-064 to antibody, Epitope Φ: antibody 3C12, relative to PC-RSV-064
Protocol: (§1) To investigate the binding of the RSV F antigen mutants to antibodies recognizing different epitopes, the binding amount was determined by an ELISA method in this example.
(§2) • 293T cells (purchased from ATCC cell bank); • Primary antibody: RSV pre-F antibody (3C12), epitope ([…] (Novoprotein, Cat. No.: DA101); • RSV pre-F antibody (7H11), epitope Quaternary (Novoprotein, Cat. No.: DA109); • RSV F antibody (11A9), epitope II (Novoprotein, Cat. No.: DA091); • RSV F antibody (4B9), epitope III (Novoprotein, Cat. No.: DA110); • RSV pre-F antibody (7E11), epitope V (Cat. No.: DA119); • Standard: RSV-pre-F trimer protein (Novoprotein, Cat. No.: DRA230); • Secondary antibody: peroxidase AffiniPure goat anti-human IgG (H+L) (Yeasen, Cat. No.: N/A); • Experimental group: mRNA vaccines after screening in Example 5;
(§3) Cell culture and transfection, and protein sample preparation: the experimental procedures were the same as in Example 3.
(§4) Detection of antigen expression by ELISA: the experimental procedures were the same as in Example 5.
(§5) In the present application, the binding of different mutant antigens to antibodies recognizing different epitopes was detected by ELISA, and the strength of the binding of the antigens to the antibodies was measured by the binding amount. (1) The RSV pre-F antibody (3C12) recognizing the epitope Φ binds only to the F protein in the pre-fusion conformation; (2) the RSV pre-F antibody (7H11) recognizes the epitope Quaternary (spanning both epitopes IV and V) and specifically binds to the F protein in the pre-fusion conformation; (3) the RSV F antibody (11A9) recognizing the epitope II can recognize both the pre-fusion and post-fusion conformations of the F protein; (4) the RSV F antibody […] recognizing the epitope III preferentially recognizes the pre-fusion conformation and has relatively weak binding activity for the post-fusion conformation; (5) the RSV pre-F antibody (7E11) recognizing the epitope V binds only to the F protein in the pre-fusion conformation.

[3] = system: RSV pre-F antibody (7H11); assay: ELISA binding of RSV F antigen mutants, epitope Quaternary; settings: for Binding amount to antibody/binding amount of PC-RSV-064 to antibody, Epitope Quaternary: antibody 7H11, relative to PC-RSV-064
Protocol: as §1, §2, §3, §4, §5

RSV F antibody (11A9) = assay: ELISA binding of RSV F antigen mutants, epitope II; settings: for Binding amount to antibody/binding amount of PC-RSV-064 to antibody, Epitope II: antibody 11A9, relative to PC-RSV-064
Protocol: as §1, §2, §3, §4, §5

Molecule | RSV pre-F antibody (3C12) Epitope Φ (%) binding rate [1] | Φ/II (%) [1] | binding of epitope Φ, epitope Quaternary and epitope V to the corresponding antibodies (in words) [2] | ELISA binding amount, Epitope Φ, RSV pre-F antibody (3C12) [2] | Binding amount to antibody/binding amount of PC-RSV-064 to antibody, Epitope Φ [2] | ELISA binding amount, Epitope Quaternary, RSV pre-F antibody (7H11) [3] | Binding amount to antibody/binding amount of PC-RSV-064 to antibody, Epitope Quaternary [3] | ELISA binding amount, Epitope II, RSV F antibody (11A9) (RSV F antibody (11A9)) | Binding amount to antibody/binding amount of PC-RSV-064 to antibody, Epitope II (RSV F antibody (11A9))
YK-RSV-048 (protein) QNITEEFYQSTCSAVSKGYLGALRTGWYTSVITIELSNIKENKCNGTDAKVKLIKQELDKYKNAVTDLQLLMQSTPATGSGSFLGFLCGVGSAIASGVAVSKVLHLEGEVNKIKSALLSTNKAVVSLSNGVSVLTFKVLDLKNYIDKQLLPILNKQSCSIPNIETVIEFQQKNNRLLEITREFSVNAGVTTPVSTYMLTNSELLSLINDMPITNDQKKLMSNNVQIVRQQSYSIMSIIKEEVLAYVVQLPLYGVIDTPCWKLHTSPLCTTNTKEGSNICLTRTDRGWYCDNAGSVSFFPQAETCKVQSNRVFCDTMCSRTLPSEVNLCNVDIFNPKYDCKIMTSKTDVSSSVITSLGAIVSCYGKTKCTASNKNRGIIKTFSNGCDYVSNKGVDTVSVGNTLYYVNKQEGQSLYVKGEPIINFYDPLVFPSDEFDASISQVNEKINQSLAFIRKSDELLHNVNAGKSTTNIMITTIIIVIIVILLSLIAVGLLLY | 89.6% | 94.2% | able to well bind | 3306 ng/mL | 1.19 | 2873 ng/mL | 0.80 | 2255 ng/mL | 1.07
YK-RSV-050 (protein) QNITEEFYQSTCSAVSKGYLGALRTGWYTSVITIELSNIKENKCNGTDAKVKLIKQELDKYKNAVTDLQLLMQSTPATGSGSFLGFCLGVGSAIASGVAVSKVLHLEGEVNKIKSALLSTNKAVVSLSNGVSVLTFKVLDLKNYIDKQLLPILNKQSCSIPNIETVIEFQQKNNRLLEITREFSVNAGVTTPVSTYMLTNSELLSLINDMPITNDQKKLMSNNVQIVRQQSYSIMSIIKEEVLAYVVQLPLYGVIDTPCWKLHTSPLCTTNTKEGSNICLTRTDRGWYCDNAGSVSFFPQAETCKVQSNRVFCDTMCSRTLPSEVNLCNVDIFNPKYDCKIMTSKTDVSSSVITSLGAIVSCYGKTKCTASNKNRGIIKTFSNGCDYVSNKGVDTVSVGNTLYYVNKQEGQSLYVKGEPIINFYDPLVFPSDEFDASISQVNEKINQSLAFIRKSDELLHNVNAGKSTTNIMITTIIIVIIVILLSLIAVGLLLY | 86.5% | 93.0% | able to well bind | 3068 ng/mL | 1.11 | 3722 ng/mL | 1.03 | 2474 ng/mL | 1.18
YK-RSV-009 (protein) QNITEEFYCSTCSAVSKGYLGALRTGWYTSVILIELSNIKENKCNGTDAKVKLIKQELDKYKNAVTDLQLLMQSTPATGSGSAIASGVAVSKVLHLEGEVNKIKSALLSTNKAVVSLSNGVSVLTFKVLDLKNYIDKQLLPIVNKQSCSIPNIETVIEFQQKNNRLLEITREFSVNAGVTTPVSTYMLTNSELLSLINDMPITNDQKKLMSNNVQIVRQQSYSIMSIIKEEVLAYVVQLPLYGVIDTPCWKLHTSPLCTTNTKEGSNICLTRTDRGWYCDNAGSVSFFPQAETCKVQSNRVFCDTMNSRTLPSEVNLCNVDIFNPKYDCKIMTSKTDVSSSVITSLGAIVSCYGKTKCTASNKNRGIIKTFSNGCDYVSNKGVDTVSVGNTLYYVNKQEGQSLYVKCEPIINFYDPLVFPSSEFDASISQVNEKINQSLAFIRKSDELLHNVNAGKSTTNIMITTIIIVIIVILLSLIAVGLLLY | 87.4% | 93.9% |  | 521 ng/mL | 0.19 | 29 ng/mL | 0.01 | 203 ng/mL | 0.10
YK-RSV-043 (protein) QNITEEFYQSTCSAVSKGYLGALRTGWYTSVITIELSNIKENKCNGTDAKVKLIKQELDKYKNAVTDLQLLMQSCPATGSGSAIACGVAVSKVLHLEGEVNKIKSALLSTNKAVVSLSNGVSVLTFKVLDLKNYIDKQLLPILNKQSCSIPNIETVIEFQQKNNRLLEITREFSVNAGVTTPVSTYMLTNSELLSLINDMPITNDQKKLMSNNVQIVRQQSYSIMSIIKEEVLAYVVQLPLYGVIDTPCWKLHTSPLCTTNTKEGSNICLTRTDRGWYCDNAGSVSFFPQAETCKVQSNRVFCDTMNSRTLPSEVNLCNVDIFNPKYDCKIMTSKTDVSSSVITSLGAIVSCYGKTKCTASNKNRGIIKTFSNGCDYVSNKGVDTVSVGNTLYYVNKQEGQSLYVKGEPIINFYDPLVFPSDEFDASISQVNEKINQSLAFIRKSDELLHNVNAGKSTTNIMITTIIIVIIVILLSLIAVGLLLY |  | 95.3% |  | 9445 ng/mL | 3.41 | 922 ng/mL | 0.26 | 4610 ng/mL | 2.20
YK-RSV-010 (protein) QNITEEFYQSTCSAVSKGYLGALRTGWYTCVILIELSNIKENKCNGTDAKVKLIKQELDKYKNAVTDLQLLMQSTPATGSGSAIASGVAVSKVLHLEGEVNKIKSALLSTNKAVVSLSNGVSVCTFKVLDLKNYIDKQLLPIVNKQSCSIPNIETVIEFQQKNNRLLEITREFSVNAGVTTPVSTYMLTNSELLSLINDMPITNDQKKLMSNNVQIVRQQSYSIMSIIKEEVLAYVVQLPLYGVIDTPCWKLHTSPLCTTNTKEGSNICLTRTDRGWYCDNAGSVSFFPQAETCKVQSNRVFCDTMNSRTLPSEVNLCNVDIFNPKYDCKIMTSKTDVSSSVITSLGAIVSCYGKTKCTASNKNRGIIKTFSNGCDYVSNKGVDTVSVGNTLYYVNKQEGQSLYVKGEPIINFYDPLVFPSSEFDASISQVNEKINQSLAFIRKSDELLHNVNAGKSTTNIMITTIIIVIIVILLSLIAVGLLLY |  | 97.3% |  | 838 ng/mL | 0.30 | 39 ng/mL | 0.01 | 336 ng/mL | 0.16
YK-RSV-055 (protein) QNITEEFYQSTCSAVSKGYLGALRTGWYTSVITIELSNIKENKCNGTDAKVKLIKQELDKYKNAVTDLQLLMQSTPATGSGSCIASGVAVSKVLHLEGEVNKIKSALLSTNKAVVSLSNGVSVLTFKVLDLKNYIDKQLLPILNKQSCSIPNIETVIEFQQKNNRLLEITREFSVNAGVTTPVSTYMLTNSELLSLINDMPITNDQKKLMSNNVQIVRQQSYSIMSICKEEVLAYVVQLPLYGVIDTPCWKLHTSPLCTTNTKEGSNICLTRTDRGWYCDNAGSVSFFPQAETCKVQSNRVFCDTMNSRTLPSEVNLCNVDIFNPKYDCKIMTSKTDVSSSVITSLGAIVSCYGKTKCTASNKNRGIIKTFSNGCDYVSNKGVDTVSVGNTLYYVNKQEGQSLYVKGEPIINFYDPLVFPSDEFDASISQVNEKINQSLAFIRKSDELLHNVNAGKSTTNIMITTIIIVIIVILLSLIAVGLLLY |  | 97.0% |  | 8589 ng/mL | 3.10 | 4317 ng/mL | 1.20 | 3856 ng/mL | 1.84
